Measured values reported in a protein production outcome set (Wang et al. 2014).

Experiment: label from the status in PepcDB records
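Also: failed if final PepcDB status was selected cloned or expressed and not failed if soluble or beyond.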

Row | Sequence | protein production
1 | TVGILWVNWDSHVRYANRAAEEMLGYPAGGVIDRPLIDFEPNLHMDRWLNLWKRARASEEGVQSFETQCVRADGSILPADVSLSFLRFRDSEYLVVYLNDV | failed
2 | TVVNDPSCESVVTTPQHSLRDANSPAGLLSIAEETLAEFLSKATGTAVDWVQMPGMKPGPDSVGIFAISQRCNGVAARACGLVSLEPMKIAEILKDRPSWFRDCRSLEVFTMFPAGNGGTIELVYMQTYAPTTLAPARDFWTLRYTTSLDNGSFVVCERSLSGSGAGPNAASASQFVRAEMLSSGYLIRPCDGGGSIIHIVDHLNLEAWSVPDVLRPLYESSKVVAQKMTISALRYIRQLAQESNGEVVYGLGRQPAVLRTFSQRLSRGFNDAVNGFGDDGWSTMHCDGAEDIIVAINSTKHLTNISNSV | not failed
3 | VAASWREQFIRAEQTHWDAVTETASETYWEGGVLSDVTALAPDPATLFISNSMPIRDMDRFGGPRDADLTVLGNRGASGIDGITSTALGAGSATSDPLVLVTGDLAYYHDMNGLLALGRCAVDATVVLLNNDGGGIFHMLPIEDHPTFEDQFRTPHGLDFEPTEALYSLQFERVADRRQFRERFAESVQTDGTQVIEVRFDAGDSHAVRDQLTE | failed
4 | VDEKALKHITEMGFSKEASRQALMDNGNNLEAALNVLLTSNKQKPVMGPP | not failed
5 | VDICNHALLVGYGRVGSLLGEKLLASDIPLVVIETSRTRVDELRERGVRAVLGNAANEEIMQLAHLECAKWLILTIPNGYEAGEIVASARAKNPDIEIIARAHYDDEVAYITERGANQVVMGEREIARTMLELLETPPAGEVVTR | not failed
6 | VDKVDSREEKITEKFDEPATYIEDAEQLEGEETLVTPGTQGERTVTRKIVTVNGVETANEVVNEEIITPGVAATIKRGAKK | failed
7 | VDQLFFSTTDAQGRIQETNNTFVELSRYTEEELRNAAHNIIRHPFMPGGVFKIMWDKLQRGETFAGYVRNLAHSGETYDVFATVTPIPGTHD | failed
8 | VDRDYLQSEYGVLKAGQCYKVVRSFRDYRNINYERGDVMRFLGSNFVPYESGLSLFFDKNGSERQIMLCVRPEFQMEIAHHLDSYFCKLDDN | not failed
9 | VDWTDAERSAIVGLWGKISVDEIGPQALARLLIVSPWTQRHFSTFGNLSTPAAIMGNPAVAKHGKTVMHGLDRAVQNLDDIKNTYATLSVMHSEKLHVDPDNFRLLADCITVCVAAKLGPAVFSADTQEAFQKFLAVVVSALGRQYH | not failed
10 | VELLQVDADLQAEIVGKYNADLQKAVQIEEKKAREIATEAVKEHVTAEYEERYAEHEEHDRIMRDVAEILEQMEHAEVRRLITEDKVRPD | not failed
11 | VFGVKEWECEVLSNKNVSTFIKEFVVKLPEGETMNFKSGSYAQIKIPKYNIRYADYDIQDRFRGDWDKMDAWSLTCKNEEETVRAYSMANYPAEGNIITLNVRIATPPFDRAANKWKAGIKPGISSSYIFSLKPGDKVMMSGPYGDFHIQDTDAEMLYIGGGAGMAPLRAQILHLFRTLKTGRKVSYWYGARSKNEIFYEEDFREIEREFPNFKFHIALSDPQPEDNWTGYVGFIHQVIYDNYLKDHDAPEDIEYYMCGPGPMANAVKGMLENLGVPRNMLFFDDFG | not failed
12 | VGFAPELYCGLENCYDVLEVNREEFDKQKLAKAYRALARKHHPDRVKNKEEKLLAEERFRVIATAYETLKDDEAKTNYDYYLDHPDQRFYNYYQY | not failed
13 | VGFLMFGNLLRECGVLDRLSQTAQNELVNIISILLGLTISIKMQADLFLNVQTL | failed
14 | VGGFTWDLSANLSSVANKIISLPYNGIENNRVGGYEVAVGKGTNATKWIAGRQEGGKLGEMVAYKQNHIFKSWDDVKEHANMMIDEVANLYGPGLASEYAGKEGWKPIEPGDVCWEDINGDNKINGLDREVVGNIFPKVTGGFSSTLSWKGISLYARFDYALGHTLYNDLAARTLGQYQGAFNIITEVKDMWSEDNPNSDLPAFYYADQLAKKNITRSNNASASRHNNSSRLYEKADYLALRELTLSWDLPKAWTSKAFIQNASVYVTGQNLFYVTGYTGTSPEPVLTNSDNNENLYGVDQGRYPTPRTVLFGLSVTF | failed
15 | VGKEKAEVELLQVDVDLQADIVAKYNAQLQKAVQVEEKKAREAATEAVKEMVKAEYEERYAEDENLATIMRDVAEILEQMEHAEVRRLITEDKIRPDGRKIDEIRP | failed
16 | VHVLIRPLQAQDREREKAFIERLSPESRHFRFLCQLREPGEAMLDQLMKVDQDRQAAYVALAHVDGELQEVGISRYATASGKDECECAVTVMDSWQHHGLGRLLLKHLIDHARAKGLRQMYSVDAAANQAMRELAKAAGFTT | failed
